B1: H183/L072 VL S52P (antibody, name in Kabat numbering, V domains shown)
VH: QVQLVESGGGLVQPGRSLRLSCAASGFTFSNAWMHWVRQAPGKGLEWVAQIKDKGNAYAAYYAPSVKGRFTISRDDSKNSIYLQMNSLKTEDTAVYYCHYVHYASASTVLPAFGVDAWGQGTTVTVSS
VL: DIVMTQSPLSLPVTPGEPASISCQASQELVHMNRNTYLHWYQQKPGQAPRLLIYKVPNRFPGVPDRFSGSGSGTDFTLKISRVEAEDVGVYYCAQGTSVPFTFGQGTKLEIK
notes: Dual-Ig
B2: H183/L072 VL S93D (antibody, name in Kabat numbering, V domains shown)
VH: QVQLVESGGGLVQPGRSLRLSCAASGFTFSNAWMHWVRQAPGKGLEWVAQIKDKGNAYAAYYAPSVKGRFTISRDDSKNSIYLQMNSLKTEDTAVYYCHYVHYASASTVLPAFGVDAWGQGTTVTVSS
VL: DIVMTQSPLSLPVTPGEPASISCQASQELVHMNRNTYLHWYQQKPGQAPRLLIYKVSNRFPGVPDRFSGSGSGTDFTLKISRVEAEDVGVYYCAQGTDVPFTFGQGTKLEIK
notes: Dual-Ig
B3: H183/L072 VL S52T (antibody, name in Kabat numbering, V domains shown)
VH: QVQLVESGGGLVQPGRSLRLSCAASGFTFSNAWMHWVRQAPGKGLEWVAQIKDKGNAYAAYYAPSVKGRFTISRDDSKNSIYLQMNSLKTEDTAVYYCHYVHYASASTVLPAFGVDAWGQGTTVTVSS
VL: DIVMTQSPLSLPVTPGEPASISCQASQELVHMNRNTYLHWYQQKPGQAPRLLIYKVTNRFPGVPDRFSGSGSGTDFTLKISRVEAEDVGVYYCAQGTSVPFTFGQGTKLEIK
notes: Dual-Ig
B4: H183/L072 VL S93N (antibody, name in Kabat numbering, V domains shown)
VH: QVQLVESGGGLVQPGRSLRLSCAASGFTFSNAWMHWVRQAPGKGLEWVAQIKDKGNAYAAYYAPSVKGRFTISRDDSKNSIYLQMNSLKTEDTAVYYCHYVHYASASTVLPAFGVDAWGQGTTVTVSS
VL: DIVMTQSPLSLPVTPGEPASISCQASQELVHMNRNTYLHWYQQKPGQAPRLLIYKVSNRFPGVPDRFSGSGSGTDFTLKISRVEAEDVGVYYCAQGTNVPFTFGQGTKLEIK
notes: Dual-Ig
B5: H183/L072 VL S52R (antibody, name in Kabat numbering, V domains shown)
VH: QVQLVESGGGLVQPGRSLRLSCAASGFTFSNAWMHWVRQAPGKGLEWVAQIKDKGNAYAAYYAPSVKGRFTISRDDSKNSIYLQMNSLKTEDTAVYYCHYVHYASASTVLPAFGVDAWGQGTTVTVSS
VL: DIVMTQSPLSLPVTPGEPASISCQASQELVHMNRNTYLHWYQQKPGQAPRLLIYKVRNRFPGVPDRFSGSGSGTDFTLKISRVEAEDVGVYYCAQGTSVPFTFGQGTKLEIK
notes: Dual-Ig
B6: H183/L072 VL S93E (antibody, name in Kabat numbering, V domains shown)
VH: QVQLVESGGGLVQPGRSLRLSCAASGFTFSNAWMHWVRQAPGKGLEWVAQIKDKGNAYAAYYAPSVKGRFTISRDDSKNSIYLQMNSLKTEDTAVYYCHYVHYASASTVLPAFGVDAWGQGTTVTVSS
VL: DIVMTQSPLSLPVTPGEPASISCQASQELVHMNRNTYLHWYQQKPGQAPRLLIYKVSNRFPGVPDRFSGSGSGTDFTLKISRVEAEDVGVYYCAQGTEVPFTFGQGTKLEIK
notes: Dual-Ig
B7: H183/L072 VL S93G (antibody, name in Kabat numbering, V domains shown)
VH: QVQLVESGGGLVQPGRSLRLSCAASGFTFSNAWMHWVRQAPGKGLEWVAQIKDKGNAYAAYYAPSVKGRFTISRDDSKNSIYLQMNSLKTEDTAVYYCHYVHYASASTVLPAFGVDAWGQGTTVTVSS
VL: DIVMTQSPLSLPVTPGEPASISCQASQELVHMNRNTYLHWYQQKPGQAPRLLIYKVSNRFPGVPDRFSGSGSGTDFTLKISRVEAEDVGVYYCAQGTGVPFTFGQGTKLEIK
notes: Dual-Ig
B8: H183/L072 VL S52Q (antibody, name in Kabat numbering, V domains shown)
VH: QVQLVESGGGLVQPGRSLRLSCAASGFTFSNAWMHWVRQAPGKGLEWVAQIKDKGNAYAAYYAPSVKGRFTISRDDSKNSIYLQMNSLKTEDTAVYYCHYVHYASASTVLPAFGVDAWGQGTTVTVSS
VL: DIVMTQSPLSLPVTPGEPASISCQASQELVHMNRNTYLHWYQQKPGQAPRLLIYKVQNRFPGVPDRFSGSGSGTDFTLKISRVEAEDVGVYYCAQGTSVPFTFGQGTKLEIK
notes: Dual-Ig
B9: H183/L072 VL S93K (antibody, name in Kabat numbering, V domains shown)
VH: QVQLVESGGGLVQPGRSLRLSCAASGFTFSNAWMHWVRQAPGKGLEWVAQIKDKGNAYAAYYAPSVKGRFTISRDDSKNSIYLQMNSLKTEDTAVYYCHYVHYASASTVLPAFGVDAWGQGTTVTVSS
VL: DIVMTQSPLSLPVTPGEPASISCQASQELVHMNRNTYLHWYQQKPGQAPRLLIYKVSNRFPGVPDRFSGSGSGTDFTLKISRVEAEDVGVYYCAQGTKVPFTFGQGTKLEIK
notes: Dual-Ig
B10: H183/L072 VL S93M (antibody, name in Kabat numbering, V domains shown)
VH: QVQLVESGGGLVQPGRSLRLSCAASGFTFSNAWMHWVRQAPGKGLEWVAQIKDKGNAYAAYYAPSVKGRFTISRDDSKNSIYLQMNSLKTEDTAVYYCHYVHYASASTVLPAFGVDAWGQGTTVTVSS
VL: DIVMTQSPLSLPVTPGEPASISCQASQELVHMNRNTYLHWYQQKPGQAPRLLIYKVSNRFPGVPDRFSGSGSGTDFTLKISRVEAEDVGVYYCAQGTMVPFTFGQGTKLEIK
notes: Dual-Ig
B11: H183/L072 VL S93R (antibody, name in Kabat numbering, V domains shown)
VH: QVQLVESGGGLVQPGRSLRLSCAASGFTFSNAWMHWVRQAPGKGLEWVAQIKDKGNAYAAYYAPSVKGRFTISRDDSKNSIYLQMNSLKTEDTAVYYCHYVHYASASTVLPAFGVDAWGQGTTVTVSS
VL: DIVMTQSPLSLPVTPGEPASISCQASQELVHMNRNTYLHWYQQKPGQAPRLLIYKVSNRFPGVPDRFSGSGSGTDFTLKISRVEAEDVGVYYCAQGTRVPFTFGQGTKLEIK
notes: Dual-Ig
B12: H183/L072 VL S93F (antibody, name in Kabat numbering, V domains shown)
VH: QVQLVESGGGLVQPGRSLRLSCAASGFTFSNAWMHWVRQAPGKGLEWVAQIKDKGNAYAAYYAPSVKGRFTISRDDSKNSIYLQMNSLKTEDTAVYYCHYVHYASASTVLPAFGVDAWGQGTTVTVSS
VL: DIVMTQSPLSLPVTPGEPASISCQASQELVHMNRNTYLHWYQQKPGQAPRLLIYKVSNRFPGVPDRFSGSGSGTDFTLKISRVEAEDVGVYYCAQGTFVPFTFGQGTKLEIK
notes: Dual-Ig
B13: H183/L072 VL S93H (antibody, name in Kabat numbering, V domains shown)
VH: QVQLVESGGGLVQPGRSLRLSCAASGFTFSNAWMHWVRQAPGKGLEWVAQIKDKGNAYAAYYAPSVKGRFTISRDDSKNSIYLQMNSLKTEDTAVYYCHYVHYASASTVLPAFGVDAWGQGTTVTVSS
VL: DIVMTQSPLSLPVTPGEPASISCQASQELVHMNRNTYLHWYQQKPGQAPRLLIYKVSNRFPGVPDRFSGSGSGTDFTLKISRVEAEDVGVYYCAQGTHVPFTFGQGTKLEIK
notes: Dual-Ig
B14: H183/L072 VL S93A (antibody, name in Kabat numbering, V domains shown)
VH: QVQLVESGGGLVQPGRSLRLSCAASGFTFSNAWMHWVRQAPGKGLEWVAQIKDKGNAYAAYYAPSVKGRFTISRDDSKNSIYLQMNSLKTEDTAVYYCHYVHYASASTVLPAFGVDAWGQGTTVTVSS
VL: DIVMTQSPLSLPVTPGEPASISCQASQELVHMNRNTYLHWYQQKPGQAPRLLIYKVSNRFPGVPDRFSGSGSGTDFTLKISRVEAEDVGVYYCAQGTAVPFTFGQGTKLEIK
notes: Dual-Ig
B15: H183/L072 VL S93I (antibody, name in Kabat numbering, V domains shown)
VH: QVQLVESGGGLVQPGRSLRLSCAASGFTFSNAWMHWVRQAPGKGLEWVAQIKDKGNAYAAYYAPSVKGRFTISRDDSKNSIYLQMNSLKTEDTAVYYCHYVHYASASTVLPAFGVDAWGQGTTVTVSS
VL: DIVMTQSPLSLPVTPGEPASISCQASQELVHMNRNTYLHWYQQKPGQAPRLLIYKVSNRFPGVPDRFSGSGSGTDFTLKISRVEAEDVGVYYCAQGTIVPFTFGQGTKLEIK
notes: Dual-Ig
B16: H183/L072 VL S93L (antibody, name in Kabat numbering, V domains shown)
VH: QVQLVESGGGLVQPGRSLRLSCAASGFTFSNAWMHWVRQAPGKGLEWVAQIKDKGNAYAAYYAPSVKGRFTISRDDSKNSIYLQMNSLKTEDTAVYYCHYVHYASASTVLPAFGVDAWGQGTTVTVSS
VL: DIVMTQSPLSLPVTPGEPASISCQASQELVHMNRNTYLHWYQQKPGQAPRLLIYKVSNRFPGVPDRFSGSGSGTDFTLKISRVEAEDVGVYYCAQGTLVPFTFGQGTKLEIK
notes: Dual-Ig
B17: H183/L072 VL S52W (antibody, name in Kabat numbering, V domains shown)
VH: QVQLVESGGGLVQPGRSLRLSCAASGFTFSNAWMHWVRQAPGKGLEWVAQIKDKGNAYAAYYAPSVKGRFTISRDDSKNSIYLQMNSLKTEDTAVYYCHYVHYASASTVLPAFGVDAWGQGTTVTVSS
VL: DIVMTQSPLSLPVTPGEPASISCQASQELVHMNRNTYLHWYQQKPGQAPRLLIYKVWNRFPGVPDRFSGSGSGTDFTLKISRVEAEDVGVYYCAQGTSVPFTFGQGTKLEIK
notes: Dual-Ig
B18: H183/L072 VL S93Q (antibody, name in Kabat numbering, V domains shown)
VH: QVQLVESGGGLVQPGRSLRLSCAASGFTFSNAWMHWVRQAPGKGLEWVAQIKDKGNAYAAYYAPSVKGRFTISRDDSKNSIYLQMNSLKTEDTAVYYCHYVHYASASTVLPAFGVDAWGQGTTVTVSS
VL: DIVMTQSPLSLPVTPGEPASISCQASQELVHMNRNTYLHWYQQKPGQAPRLLIYKVSNRFPGVPDRFSGSGSGTDFTLKISRVEAEDVGVYYCAQGTQVPFTFGQGTKLEIK
notes: Dual-Ig
B19: H183/L072 VL S93P (antibody, name in Kabat numbering, V domains shown)
VH: QVQLVESGGGLVQPGRSLRLSCAASGFTFSNAWMHWVRQAPGKGLEWVAQIKDKGNAYAAYYAPSVKGRFTISRDDSKNSIYLQMNSLKTEDTAVYYCHYVHYASASTVLPAFGVDAWGQGTTVTVSS
VL: DIVMTQSPLSLPVTPGEPASISCQASQELVHMNRNTYLHWYQQKPGQAPRLLIYKVSNRFPGVPDRFSGSGSGTDFTLKISRVEAEDVGVYYCAQGTPVPFTFGQGTKLEIK
notes: Dual-Ig
B20: H183/L072 VL S52V (antibody, name in Kabat numbering, V domains shown)
VH: QVQLVESGGGLVQPGRSLRLSCAASGFTFSNAWMHWVRQAPGKGLEWVAQIKDKGNAYAAYYAPSVKGRFTISRDDSKNSIYLQMNSLKTEDTAVYYCHYVHYASASTVLPAFGVDAWGQGTTVTVSS
VL: DIVMTQSPLSLPVTPGEPASISCQASQELVHMNRNTYLHWYQQKPGQAPRLLIYKVVNRFPGVPDRFSGSGSGTDFTLKISRVEAEDVGVYYCAQGTSVPFTFGQGTKLEIK
notes: Dual-Ig

For this assay, the target named is T1, Human CD137 ECD (human).
T1 construct: entry includes C-terminal His-tag and biotin acceptor peptide; also called human CD137 extracellular domain; 4-1BB
T1 sequence (chain, as listed by the source limits assumed): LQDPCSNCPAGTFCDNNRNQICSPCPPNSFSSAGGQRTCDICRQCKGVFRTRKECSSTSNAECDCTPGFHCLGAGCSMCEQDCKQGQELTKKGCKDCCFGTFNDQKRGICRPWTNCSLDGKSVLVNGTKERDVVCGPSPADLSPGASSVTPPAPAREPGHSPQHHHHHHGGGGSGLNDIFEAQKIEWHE
Description: Biacore SPR, vs parent H183/L072. On the technique in general: Surface plasmon resonance follows binding to a sensor surface in real time, without labels.
In the case of B1, the “fold change of affinity” value was found to be 0.3 fold.

In the case of B2, the “fold change of affinity” value is 0.7 fold.

On to B3, for which the “fold change of affinity” value is 1 fold.

B4: the “fold change of affinity” value stood at 1 fold.

Consider B5, for which the “fold change of affinity” value was 1 fold.

As to B6, the “fold change of affinity” value came to 1 fold.

As to B7, the “fold change of affinity” value was 0.4 fold.

Take B8: the “fold change of affinity” value was determined as 1 fold.

Turning to B9, the “fold change of affinity” value came to 1.1 fold.

As to B10, the “fold change of affinity” value worked out at 1 fold.

Take B11: the “fold change of affinity” value was 1 fold.

With B12, the “fold change of affinity” value was found to be 1 fold.

On to B13, for which the “fold change of affinity” value came out at 1.3 fold.

Take B14: the “fold change of affinity” value stood at 0.9 fold.

Turning to B15, the “fold change of affinity” value came to 1.1 fold.

In the case of B16, the “fold change of affinity” value is 1.3 fold.

For the molecule B17, the “fold change of affinity” value is 1 fold.

For B18, the “fold change of affinity” value came to 1.1 fold.

Consider B19, for which the “fold change of affinity” value amounted to 0 fold.

In the case of B20, the “fold change of affinity” value was 1.3 fold.

(Values after patent publication US20210388087A1 (Chugai, published 2021).)
